Test results taken from patent publication US11866736B2, “Protein prostheses for mitochondrial diseases or conditions” (The General Hospital Corporation, priority 2015, dated 2024).

What was measured:
[1] = Continuous assay of H2O2 production (Amplex Red/HRP/SOD); type: biochemical
Protocol: Reaction mixture contained: 50 mM NaPi pH 7.5, 150 mM NaCl buffer, 350 μM NADH, SOD 130U and 100 μM D-glucose at 37° C. At times indicated LbNOX and glucose oxidase were added. Glucose oxidase was used to validate the assay, since this enzyme produces H2O2 from oxygen and D-glucose. Rates on H2O2-forming activity of LbNOX were compared to rates of NADH disappearance in parallel experiments. It was estimated that around 1.7±0.3% of H2O2 is produced by LbNOX (n=4).
H2O2 production was monitored in a continuous assay followed by the increase in absorbance at 570 nm upon resorufin formation (ε570=54 mM^−1 cm^−1). It was shown previously that presence of NADH in the assay mixture results in the oxidation of AMPLEX® Red dye in the HRP-dependent manner and this process is greatly diminished by supplementation of superoxide dismutase (SOD) (Votyakova, et al., Arch. Biochem. Biophys., 431:138, 2004). […] The reaction was preincubated at 37° C. for 3 min before LbNOX was added (0.15 μg) and subsequently after LbNOX-dependent rate of H2O2 production was recorded, 4 U of glucose oxidase (Sigma, G2133-10 KU) was added (FIG. 6). […] H2O2-forming activity of LbNOX was compared to the total NADH oxidase activity which was determined in a parallel experiment when the decrease of NADH absorbance at 340 nm was monitored under identical conditions.

[2] = test system: primary rat hepatocytes; test: Gluconeogenesis in primary hepatocytes (adenoviral transduction); type: cell-based; details: adenovirus transduction, 5 mM lactate, glucose measured after 6 hours
Description: Two custom adenoviruses (Adenovirus Type 5 (dE1/E3)) were produced by Vector Biolabs. The same LbNOX and mitoLbNOX nucleotide sequences were used as in the lentiviral pLVX-TRE3G constructs. Adenoviral constructs encode for expression of either LbNOX or mitoLbNOX and eGFP, each gene driven by its own CMV promoter. Adenovirus with eGFP driven by the CMV promoter was used as a control (Vector Biolabs, 1060-HT).
Primary hepatocytes were obtained from the MGH Cell Resource Core, where they were freshly isolated by collagenase perfusion of livers from 24-hour fasted Sprague-Dawley rats and plated onto 24-well collagen-coated plates. Twenty four thousand cells were plated and cultured overnight in isolation media (DMEM with high glucose and pyruvate (Life Technologies, 11995)) supplemented with 20 ng/mL epidermal growth factor, 14.3 μg/mL glucagon, insulin, 7.5 μg/mL hydrocortisone, 10% FBS, 1% Penicillin-streptomycin). Cells were then transduced with the indicated adenoviral vector (MOI 20) and were serum starved by incubating in DMEM without additional supplementation overnight. […] Media was sampled 6 hours later and glucose was measured using the AMPLEX® Red Glucose Assay (Life-Technologies) and normalized to total protein levels from hepatocytes lysed in 1% SDS as measured by the BCA assay. […]

[3] = Enzymatic assay of NAD(P)H oxidase activity, NADPH as substrate (Michaelis-Menten analysis); type: biochemical
Protocol: TPNOX is highly specific towards NADPH (e.g., approximately 1120 fold more reactive with NADPH than with NADH based on respective kat/KM values).
Recombinant LbNOX activity was monitored by following the decrease of the absorbance of NAD(P)H at […] using CARY® 100 spectrophotometer (Agilent, CA). A typical reaction mixture contained 2 μM FAD in 0.5 ml of the assay buffer (50 mM Na2HPO4, pH 7.5, 150 mM NaCl) and was incubated for 4 min at 37° C. before NAD(P)H (2-600 μM) and enzyme (0.08-6.8 μg) were added. Extinction coefficient (ε340=6.2 mM^−1 cm^−1) was used to calculate NAD(P)H oxidase activity. Simultaneous monitoring of oxygen consumption and NADH fluorescence was performed using a custom-built fluorimeter. In our setup the REDEYE™ oxygen patch (OceanOptics) was installed in a cuvette and the optical probe was connected to a fluorimeter. Oxygen causes quenching of the REDEYE™ patch fluorescence which allows to monitor the partial pressure of oxygen. In our experiments 0.5 ml of the assay buffer was preincubated at 28° C. before NADH (40-1500 μM) and LbNOX (0.1-2 μg) were added.

| Molecule | H2O2 relative to H2O production during catalytic cycle [1] | H2O2 produced (H2O2-forming rate compared to rate of NADH disappearance) ([1]; 350 μM NADH, 37° C., n=4) | gluconeogenesis from lactate [2] | kcat with NADPH [3] [s⁻¹] | Km ([3]; recombinant enzyme) [µM] |
| --- | --- | --- | --- | --- | --- |
| LbNOX: water-forming NADH oxidase endogenous to Lactobacillus brevis; tested with C-terminal FLAG tag (protein, listed as Lactobacillus brevis, C-terminal FLAG tag) KVTVVGCTHAGTFAIKQILAEHPDAEVTVYERNDVISFLSCGIALYLGGKVADPQGLFYSSPEELQKLGANVQMNHNVLAIDPDQKTVTVEDLTNHAQTTESYDKLVMTSGSWPIVPKIPGIDSDRVKLCKNWAHAQALIEDAKEAKRITVIGAGYIGAELAEAYSTTGHDVTLIDAMARVMPKYFDADFTDVIEQDYRDHGVQLALGETVESFTDSATGLTIKTDKNSYETDLAILCIGFRPNTDLLKGKVDMAPNGAIITDDYMRSSNPDIFAAGDSAAVHYNPTHQNAYIPLATNAVRQGILVGKNLVKPTVKYMGTQSSSGLALYDRTIVSTGLTLAAAKQQGLNAEQVIVEDNYRPEFMPSTEPVLMSLVFDPDTHRILGGALMSKYDVSQSANTLSVCIQNENTIDDLAMVDMLFQPNFDRPFNYLNILAQAAQAKVAQSVNA | 1-2 % by mole | around 1.7±0.3% | significantly increased | – | – |
| TPNOX: NADPH-specific quintuple mutant (G159A/D177A/A178R/M179S/P184R) of LbNOX (protein) KVTVVGCTHAGTFAIKQILAEHPDAEVTVYERNDVISFLSCGIALYLGGKVADPQGLFYSSPEELQKLGANVQMNHNVLAIDPDQKTVTVEDLTNHAQTTESYDKLVMTSGSWPIVPKIPGIDSDRVKLCKNWAHAQALIEDAKEAKRITVIGAGYIAAELAEAYSTTGHDVTLIARSARVMRKYFDADFTDVIEQDYRDHGVQLALGETVESFTDSATGLTIKTDKNSYETDLAILCIGFRPNTDLLKGKVDMAPNGAIITDDYMRSSNPDIFAAGDSAAVHYNPTHQNAYIPLATNAVRQGILVGKNLVKPTVKYMGTQSSSGLALYDRTIVSTGLTLAAAKQQGLNAEQVIVEDNYRPEFMPSTEPVLMSLVFDPDTHRILGGALMSKYDVSQSANTLSVCIQNENTIDDLAMVDMLFQPNFDRPFNYLNILAQAAQAKVAQSVNA | – | – | – | 268 ± 4 | 22 ± 2 |
